Laboratory results as given in US20050064507.

How the values were obtained:
[1] = target: T1, fit1 peptide VQMTWSYPDEKNKRASVRRR (SEQ ID NO:158) (not fully specified)
T1 chain: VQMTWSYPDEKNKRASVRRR

[2] = target: T2, CACNA1C peptide RGFLRSASLGRRASFHLE (SEQ ID NO:96) (not fully specified)
T2 chain: RGFLRSASLGRRASFHLE

[3] = target: T3, ASIP peptide KKRSSKKEASMKKVVRP (SEQ ID NO:97) (not fully specified)
T3 chain: KKRSSKKEASMKKVVRP

[4] = target: T4, NEURL peptide ALRRPSLRREADD (SEQ ID NO:105) (not fully specified)
T4 chain: ALRRPSLRREADD

[5] = target: T5, NF1 peptide SQVQKQRSAGSFKRNSIKKI (SEQ ID NO:127) (not fully specified)
T5 chain: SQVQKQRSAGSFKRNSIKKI

[6] = target: T6, PARIS1 peptide EYLERRASRRRAV (SEQ ID NO:130) (not fully specified)
T6 chain: EYLERRASRRRAV

[7] = target: T7, cyclophilin G peptide TEEKSKKRKKKHRKNSRKHK (SEQ ID NO:165) (not fully specified)
T7 chain: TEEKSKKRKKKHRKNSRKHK

[8] = target: T8, NMDAR1 peptide RAITSTLASSFKRRR (SEQ ID NO:122) (not fully specified)
T8 chain: RAITSTLASSFKRRR

[9] = target: T9, ANK1 peptide AQIVKRASLKRGKQ (SEQ ID NO:90) (not fully specified)
T9 chain: AQIVKRASLKRGKQ

[10] = target: T10, PLEK peptide KFARKSTRRSIRLPE (SEQ ID NO:78) (not fully specified)
T10 chain: KFARKSTRRSIRLPE

[11] = target: T11, NR4A3 peptide KEVVRTDSLKGRRGR (SEQ ID NO:109) (not fully specified)
T11 chain: KEVVRTDSLKGRRGR

[12] = target: T12, calcium channel, voltage-dependent, L type, alpha peptide RDIRQSPKRGFLRSASLGRR (SEQ ID NO:147) (not fully specified)
T12 chain: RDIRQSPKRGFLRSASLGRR

[13] = target: T13, titin peptide PFEVVWYKDKRQLRSSKKYK (SEQ ID NO:160) (not fully specified)
T13 chain: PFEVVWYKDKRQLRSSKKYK

[14] = target: T14, ribosomal protein S6 peptide AKRRRLSSLRASTSK (SEQ ID NO:120) (not fully specified)
T14 chain: AKRRRLSSLRASTSK

[15] = target: T15, NIK peptide WKGKRRSKARKKRK (SEQ ID NO:131) (not fully specified)
T15 chain: WKGKRRSKARKKRK

[16] = target: T16, MAP3K14 peptide WKGKRRSKARKKRK (SEQ ID NO:100) (not fully specified)
T16 chain: WKGKRRSKARKKRK

[17] = target: T17, ERN1 peptide ISDFGLAKKLAVGRHSFSRR (SEQ ID NO:145) (not fully specified)
T17 chain: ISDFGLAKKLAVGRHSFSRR

[18] = target: T18, pleckstrin 1 peptide KAIKAIEGGQKFARKSTRRS (SEQ ID NO:126) (not fully specified)
T18 chain: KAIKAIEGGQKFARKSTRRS

[19] = target: T19, PLEC1 peptide KRERKTSSKSSVRKRR (SEQ ID NO:81) (not fully specified)
T19 chain: KRERKTSSKSSVRKRR

[20] = target: T20, MYBPC3 peptide LLKKRDSFRTPRDSKLE (SEQ ID NO:103) (not fully specified)
T20 chain: LLKKRDSFRTPRDSKLE

[21] = target: T21, nuclear RNA export factor 3 peptide VRYTPYTISPYNRKGSFRKQ (SEQ ID NO:143) (not fully specified)
T21 chain: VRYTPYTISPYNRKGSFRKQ

[22] = target: T22, MARCKS peptide KKRFSFKKSFKLSGFSFKKN (SEQ ID NO:119) (not fully specified)
T22 chain: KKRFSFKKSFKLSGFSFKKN

[23] = target: T23, kinesin 3C peptide LEKRGMLGKRPRRKSSRRKK (SEQ ID NO:133) (not fully specified)
T23 chain: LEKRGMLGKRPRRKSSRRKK

[24] = target: T24, CHRM1 peptide RKIPKRPGSVHRTPSRQ (SEQ ID NO:83) (not fully specified)
T24 chain: RKIPKRPGSVHRTPSRQ

[25] = target: T25, ADD2 peptide KKKFRTPSFLKKSKK (SEQ ID NO:95) (not fully specified)
T25 chain: KKKFRTPSFLKKSKK

[26] = target: T26, FLJ20574 peptide GENVLKKSMKSRVKG (SEQ ID NO:113) (not fully specified)
T26 chain: GENVLKKSMKSRVKG

[27] = target: T27, MacMARCKS peptide KKKFSFKKPFKLSGLSFKRN (SEQ ID NO:162) (not fully specified)
T27 chain: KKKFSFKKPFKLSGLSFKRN

[28] = target: T28, splicing factor, arginine/serine-rich 4 peptide RSRSRSRSKSKDKRKSRKRS (SEQ ID NO:134) (not fully specified)
T28 chain: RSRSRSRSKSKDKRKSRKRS

[29] = target: T29, PPP1R14A peptide QKRHARVTVKYDRRE (SEQ ID NO:107) (not fully specified)
T29 chain: QKRHARVTVKYDRRE

B1: PKC-zeta (protein)
chain: MPSRTGPKMEGSGGRVRLKAHYGGDIFITSVDAATTFEELCEEVRDMCRLHQQHPLTLKWVDSEGDPCTVSSQMELEEAFRLARQCRDEGLIIHVFPSTPEQPGLPCPGEDKSIYRRGARRWRKLYRANGHLFQAKRFNRRAYCGQCSERIWGLARQGYRCINCKLLVHKRCHGLVPLTCRKHMDSVMPSQEPPVDDKNEDADLPSEETDGIAYISSSRKHDSIKDDSEDLKPVIDGMDGIKISQGLGLQDFDLIRVIGRGSYAKVLLVRLKKNDQIYAMKVVKKELVHDDEDIDWVQTEKHVFEQASSNPFLVGLHSCFQTTSRLFLVIEYVNGGDLMFHMQRQRKLPEEHARFYAAEICIALNFLHERGIIYRDLKLDNVLLDADGHIKLTDYGMCKEGLGPGDTTSTFCGTPNYIAPEILRGEEYGFSVDWWALGVLMFEMMAGRSPFDIITDNPDMNTEDYLFQVILEKPIRIPRFLSVKASHVLKGFLNKDPKERLGCRPQTGFSDIKSHAFFRSIDWDLLEKKQALPPFQPQITDDYGLDNFDTQFTSEPVQLTPDDEDAIKRIDQSEFEGFEYINPLLLSTEESV
In the case of B1, the in vitro phosphorylation, 1 uM peptide (% of best substrate) [1] is reported as 11, the in vitro phosphorylation, 10 uM peptide (% of best substrate) [1] is reported as 72 and the in vitro phosphorylation (% of best substrate) [2] is reported as 22. For the same protein, the in vitro phosphorylation (% of best substrate) [3] was 1, the in vitro phosphorylation (% of best substrate) [4] was 4 and the in vitro phosphorylation, 1 uM peptide (% of best substrate) [5] was 19. It also gave an in vitro phosphorylation, 10 uM peptide (% of best substrate) [5] of 19, an in vitro phosphorylation, 1 uM peptide (% of best substrate) [6] of 36 and an in vitro phosphorylation, 10 uM peptide (% of best substrate) [6] of 39. For the same protein, the in vitro phosphorylation, 1 uM peptide (% of best substrate) [7] was 1, the in vitro phosphorylation, 10 uM peptide (% of best substrate) [7] was 2 and the in vitro phosphorylation, 1 uM peptide (% of best substrate) [8] was 20. The in vitro phosphorylation, 10 uM peptide (% of best substrate) [8] was 17, the in vitro phosphorylation (% of best substrate) [9] was 5 and the in vitro phosphorylation (% of best substrate) [10] was 100. The in vitro phosphorylation (% of best substrate) [11] was 2, the in vitro phosphorylation, 1 uM peptide (% of best substrate) [12] was 28 and the in vitro phosphorylation, 10 uM peptide (% of best substrate) [12] was 34. It also gave an in vitro phosphorylation, 1 uM peptide (% of best substrate) [13] of 15, an in vitro phosphorylation, 10 uM peptide (% of best substrate) [13] of 57 and an in vitro phosphorylation, 1 uM peptide (% of best substrate) [14] of 43. For the same protein, the in vitro phosphorylation, 10 uM peptide (% of best substrate) [14] was 34, the in vitro phosphorylation, 1 uM peptide (% of best substrate) [15] was 7 and the in vitro phosphorylation, 10 uM peptide (% of best substrate) [15] was 6. It also gave an in vitro phosphorylation (% of best substrate) [16] of 8, an in vitro phosphorylation, 1 uM peptide (% of best substrate) [17] of 25 and an in vitro phosphorylation, 10 uM peptide (% of best substrate) [17] of 61. The in vitro phosphorylation, 1 uM peptide (% of best substrate) [18] was 46, the in vitro phosphorylation, 10 uM peptide (% of best substrate) [18] was 56 and the in vitro phosphorylation (% of best substrate) [19] was 10. It also gave an in vitro phosphorylation (% of best substrate) [20] of 8, an in vitro phosphorylation, 1 uM peptide (% of best substrate) [21] of 22 and an in vitro phosphorylation, 10 uM peptide (% of best substrate) [21] of 79. The in vitro phosphorylation, 1 uM peptide (% of best substrate) [22] was 20, the in vitro phosphorylation, 10 uM peptide (% of best substrate) [22] was 20 and the in vitro phosphorylation, 1 uM peptide (% of best substrate) [23] was 27. The in vitro phosphorylation, 10 uM peptide (% of best substrate) [23] was 30, the in vitro phosphorylation (% of best substrate) [24] was 4 and the in vitro phosphorylation (% of best substrate) [25] was 5. It also gave an in vitro phosphorylation (% of best substrate) [26] of 1, an in vitro phosphorylation, 1 uM peptide (% of best substrate) [27] of 7 and an in vitro phosphorylation, 10 uM peptide (% of best substrate) [27] of 4. For the same protein, the in vitro phosphorylation, 1 uM peptide (% of best substrate) [28] was 5, the in vitro phosphorylation, 10 uM peptide (% of best substrate) [28] was 5 and the in vitro phosphorylation (% of best substrate) [29] was 1.

B2: PKC-epsilon (protein)
chain: MVVFNGLLKIKICEAVSLKPTAWSLRHAVGPRPQTFLLDPYIALNVDDSRIGQTATKQKTNSPAWHDEFVTDVCNGRKIELAVFHDAPIGYDDFVANCTIQFEELLQNGSRHFEDWIDLEPEGRVYVIIDLSGSSGEAPKDNEERVFRERMRPRKRQGAVRRRVHQVNGHKFMATYLRQPTYCSHCRDFIWGVIGKQGYQCQVCTCVVHKRCHELIITKCAGLKKQETPDQVGSQRFSVNMPHKFGIHNYKVPTFCDHCGSLLWGLLRQGLQCKVCKMNVHRRCETNVAPNCGVDARGIAKVLADLGVTPDKITNSGQRRKKLIAGAESPQPASGSSPSEEDRSKSAPTSPCDQEIKELENNIRKALSFDNRGEEHRAASSPDGQLMSPGENGEVRQGQAKRLGLDEFNFIKVLGKGSFGKVMLAELKGKDEVYAVKVLKKDVILQDDDVDCTMTEKRILALARKHPYLTQLYCCFQTKDRLFFVMEYVNGGDLMFQIQRSRKFDEPRSRFYAAEVTSALMFLHQHGVIYRDLKLDNILLDAEGHCKLADFGMCKEGILNGVTTTTFCGTPDYIAPEILQELEYGPSVDWWALGVLMYEMMAGQPPFEADNEDDLFESILHDDVLYPVWLSKEAVSILKAFMTKNPHKRLGCVASQNGEDAIKQHPFFKEIDWVLLEQKKIKPPFKPRIKTKRDVNNFDQDFTREEPVLTLVDEAIVKQINQEEFKGFSYFGEDLMP
For B2, the in vitro phosphorylation, 1 uM peptide (% of best substrate) [1] was 11, the in vitro phosphorylation (% of best substrate) [2] was 41 and the in vitro phosphorylation (% of best substrate) [3] was 16. It also gave an in vitro phosphorylation (% of best substrate) [4] of 29, an in vitro phosphorylation, 1 uM peptide (% of best substrate) [5] of 32 and an in vitro phosphorylation, 1 uM peptide (% of best substrate) [6] of 46. It also gave an in vitro phosphorylation, 1 uM peptide (% of best substrate) [7] of 12, an in vitro phosphorylation, 1 uM peptide (% of best substrate) [8] of 72 and an in vitro phosphorylation (% of best substrate) [9] of 49. For the same protein, the in vitro phosphorylation (% of best substrate) [10] was 84, the in vitro phosphorylation (% of best substrate) [11] was 26 and the in vitro phosphorylation, 1 uM peptide (% of best substrate) [12] was 26. It also gave an in vitro phosphorylation, 1 uM peptide (% of best substrate) [13] of 13, an in vitro phosphorylation, 1 uM peptide (% of best substrate) [14] of 56 and an in vitro phosphorylation, 1 uM peptide (% of best substrate) [15] of 43. For the same protein, the in vitro phosphorylation (% of best substrate) [16] was 13, the in vitro phosphorylation, 1 uM peptide (% of best substrate) [17] was 26 and the in vitro phosphorylation, 1 uM peptide (% of best substrate) [18] was 69. It also gave an in vitro phosphorylation (% of best substrate) [19] of 59, an in vitro phosphorylation (% of best substrate) [20] of 21 and an in vitro phosphorylation, 1 uM peptide (% of best substrate) [21] of 21. For the same protein, the in vitro phosphorylation, 1 uM peptide (% of best substrate) [22] was 81, the in vitro phosphorylation, 1 uM peptide (% of best substrate) [23] was 31 and the in vitro phosphorylation (% of best substrate) [24] was 47. The in vitro phosphorylation (% of best substrate) [25] was 31, the in vitro phosphorylation (% of best substrate) [26] was 10 and the in vitro phosphorylation, 1 uM peptide (% of best substrate) [27] was 19. The in vitro phosphorylation, 1 uM peptide (% of best substrate) [28] was 32 and the in vitro phosphorylation (% of best substrate) [29] was 7.
